Assay results reported in publication PMC6761020.

Biological target: Human Type IV Collagen (human) (UniProt P02462)
Experiment: ELISA

Chain of Human Type IV Collagen (human) (P02462 173-1669): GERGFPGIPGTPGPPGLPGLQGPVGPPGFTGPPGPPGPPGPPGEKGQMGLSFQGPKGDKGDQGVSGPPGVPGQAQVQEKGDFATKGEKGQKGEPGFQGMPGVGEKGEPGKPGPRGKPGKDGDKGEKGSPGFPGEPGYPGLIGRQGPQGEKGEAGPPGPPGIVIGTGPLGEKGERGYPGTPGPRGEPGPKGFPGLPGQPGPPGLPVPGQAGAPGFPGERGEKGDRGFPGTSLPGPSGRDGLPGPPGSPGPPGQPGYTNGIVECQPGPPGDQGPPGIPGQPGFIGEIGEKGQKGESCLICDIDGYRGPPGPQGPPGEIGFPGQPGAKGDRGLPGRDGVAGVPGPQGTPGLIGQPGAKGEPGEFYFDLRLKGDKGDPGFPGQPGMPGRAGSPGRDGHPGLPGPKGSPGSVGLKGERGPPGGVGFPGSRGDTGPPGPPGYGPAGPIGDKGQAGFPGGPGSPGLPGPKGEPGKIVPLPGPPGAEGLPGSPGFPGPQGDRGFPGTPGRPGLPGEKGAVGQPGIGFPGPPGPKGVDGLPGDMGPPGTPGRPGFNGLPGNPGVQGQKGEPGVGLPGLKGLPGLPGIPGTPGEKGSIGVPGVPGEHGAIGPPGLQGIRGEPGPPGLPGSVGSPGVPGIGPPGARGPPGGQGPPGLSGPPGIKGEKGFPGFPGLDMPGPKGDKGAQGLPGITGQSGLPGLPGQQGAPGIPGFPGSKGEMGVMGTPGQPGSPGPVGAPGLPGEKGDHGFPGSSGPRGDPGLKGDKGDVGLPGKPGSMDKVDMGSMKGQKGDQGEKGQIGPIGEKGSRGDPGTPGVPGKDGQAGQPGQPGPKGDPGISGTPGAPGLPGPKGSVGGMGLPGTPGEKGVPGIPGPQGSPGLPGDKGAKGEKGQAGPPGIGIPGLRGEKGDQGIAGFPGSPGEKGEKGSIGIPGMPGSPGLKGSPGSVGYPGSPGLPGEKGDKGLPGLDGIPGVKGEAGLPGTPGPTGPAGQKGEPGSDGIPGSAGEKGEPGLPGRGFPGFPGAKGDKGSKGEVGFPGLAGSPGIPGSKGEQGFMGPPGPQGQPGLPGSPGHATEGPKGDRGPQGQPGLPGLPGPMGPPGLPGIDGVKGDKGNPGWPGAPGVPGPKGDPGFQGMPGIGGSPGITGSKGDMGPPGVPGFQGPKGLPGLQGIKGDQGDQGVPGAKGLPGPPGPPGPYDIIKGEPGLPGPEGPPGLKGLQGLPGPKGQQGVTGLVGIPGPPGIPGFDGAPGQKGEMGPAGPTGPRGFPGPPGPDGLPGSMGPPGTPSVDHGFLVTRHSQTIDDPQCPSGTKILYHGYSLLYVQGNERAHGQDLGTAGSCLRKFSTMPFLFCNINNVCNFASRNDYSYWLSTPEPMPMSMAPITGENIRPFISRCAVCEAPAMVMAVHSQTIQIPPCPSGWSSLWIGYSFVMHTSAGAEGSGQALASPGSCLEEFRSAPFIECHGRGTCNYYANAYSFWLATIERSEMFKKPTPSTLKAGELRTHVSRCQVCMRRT

von Willebrand factor (human, plasma) (from UniProt P04275 764-2813) (natural protein)
percent reduction of binding by 10 μg/ml ARC1779 against saline: 34%
